Patent publication US20200048345A1 (INNATE PHARMA, published 2020)

Columns and labels:
[1] = target: T1, human FcRn (human, UniProt P55899 24-297; P61769 21-119, limits assumed); assay: SPR, recombinant human FcRn immobilized on chip; Steady State
T1 construct: also called recombinant FcRn proteins

[2] = target: T2, Human NKp46 recombinant protein (human, UniProt O76036 22-258, limits assumed); assay: SPR (Biacore T100), captured on Protein-A chip, recombinant human NKp46 6.25-400 nM, 1:1 kinetic model
T2 construct: Soluble analyte in SPR; also called recombinant human NKp46 proteins
Description: SPR measurements were performed on a Biacore T100 apparatus (Biacore GE Healthcare) at 25° C. In all Biacore experiments HBS-EP+ (Biacore GE Healthcare) and NaOH 10 mM served as running buffer and regeneration buffer respectively. Sensorgrams were analyzed with Biacore T100 Evaluation software. Protein-A was purchased from (GE Healthcare). Human NKp46 recombinant proteins were cloned, produced and purified at Innate Pharma.
Protein-A proteins were immobilized covalently to carboxyl groups in the dextran layer on a Sensor Chip CMS. The chip surface was activated with EDC/NHS (N-ethyl-N′-(3-dimethylaminopropyl) carbodiimidehydrochloride and N-hydroxysuccinimide (Biacore GE Healthcare)). Protein-A was diluted to 10 μg/ml in coupling buffer (10 mM acetate, pH 5.6) and injected until the appropriate immobilization level was reached (i.e. 2000 RU). Deactivation of the remaining activated groups was performed using 100 mM ethanolamine pH 8 (Biacore GE Healthcare).
Monovalent affinity study was conducted following a regular Capture-Kinetic protocol recommended by the manufacturer (Biacore GE Healthcare kinetic wizard). Seven serial dilutions of human NKp46 recombinant proteins, ranging from 6.25 to 400 nM were sequentially injected over the captured Bi-Specific antibodies and allowed to dissociate for 10 min before regeneration. The entire sensorgram sets were fitted using the 1:1 kinetic binding model.

T2 sequence (O76036 22-258 limits assumed): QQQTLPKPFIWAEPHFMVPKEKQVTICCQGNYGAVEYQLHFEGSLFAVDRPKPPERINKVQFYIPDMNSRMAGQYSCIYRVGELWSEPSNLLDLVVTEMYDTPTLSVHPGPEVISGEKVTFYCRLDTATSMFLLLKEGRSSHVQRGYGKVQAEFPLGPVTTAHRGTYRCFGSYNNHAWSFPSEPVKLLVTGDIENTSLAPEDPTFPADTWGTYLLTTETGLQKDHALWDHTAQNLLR
T1 sequence (P55899 24-297 limits assumed, chain 1 of 2): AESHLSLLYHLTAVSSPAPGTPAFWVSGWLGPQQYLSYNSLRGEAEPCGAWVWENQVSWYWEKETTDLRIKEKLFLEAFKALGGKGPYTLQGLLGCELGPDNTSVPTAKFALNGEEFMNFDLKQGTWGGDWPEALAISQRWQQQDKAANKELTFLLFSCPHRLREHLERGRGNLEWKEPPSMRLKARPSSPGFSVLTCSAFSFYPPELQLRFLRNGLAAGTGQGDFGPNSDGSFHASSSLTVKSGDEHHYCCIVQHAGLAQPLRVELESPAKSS
T1 sequence (P61769 21-119 limits assumed, chain 2 of 2): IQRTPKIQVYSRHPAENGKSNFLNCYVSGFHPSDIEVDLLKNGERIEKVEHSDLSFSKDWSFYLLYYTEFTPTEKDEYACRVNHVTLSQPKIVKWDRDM

B1: CD19-F9A-NKp46-3 (bispecific antibody, human IgG1, kappa)
chain 1: not shown
chain 2: DIVMTQSPATLSVTPGDRVSLSCRASQSISDYLHWYQQKSHESPRLLIKYASQSISGIPSRFSGSGSGSDFTLSINSVEPEDVGVYYCQNGHSFPLTFGAGTKLELKASTKGPSVFPLAPSSKSTSGGTAALGCLVKDYFPEPVTVSWNSGALTSGVHTFPAVLQSSGLYSLSSVVTVPSSSLGTQTYICNVNHKPSNTKVDKRVEPKSCDKTH
chain 3: not shown
notes: Heterotrimer, monomeric Fc with tandem CH3, N297S, wild-type hinge cysteines
Kd [1]: 858 nM | Kd [2]: 32 nM | koff [2]: 0.00669 s⁻¹ | kon [2]: 207000 M⁻¹ s⁻¹
